# Source: paper PMC12428753, “Heparanase-Neutralizing Monoclonal Antibody (mAb A54) Attenuates Tumor Growth and Metastasis” (Cells, 2025)
# T1: mature heparanase (active heterodimer of 8 kDa and 50 kDa subunits) (human)
# T1 sequence (Q9Y251 whole entry, looked up): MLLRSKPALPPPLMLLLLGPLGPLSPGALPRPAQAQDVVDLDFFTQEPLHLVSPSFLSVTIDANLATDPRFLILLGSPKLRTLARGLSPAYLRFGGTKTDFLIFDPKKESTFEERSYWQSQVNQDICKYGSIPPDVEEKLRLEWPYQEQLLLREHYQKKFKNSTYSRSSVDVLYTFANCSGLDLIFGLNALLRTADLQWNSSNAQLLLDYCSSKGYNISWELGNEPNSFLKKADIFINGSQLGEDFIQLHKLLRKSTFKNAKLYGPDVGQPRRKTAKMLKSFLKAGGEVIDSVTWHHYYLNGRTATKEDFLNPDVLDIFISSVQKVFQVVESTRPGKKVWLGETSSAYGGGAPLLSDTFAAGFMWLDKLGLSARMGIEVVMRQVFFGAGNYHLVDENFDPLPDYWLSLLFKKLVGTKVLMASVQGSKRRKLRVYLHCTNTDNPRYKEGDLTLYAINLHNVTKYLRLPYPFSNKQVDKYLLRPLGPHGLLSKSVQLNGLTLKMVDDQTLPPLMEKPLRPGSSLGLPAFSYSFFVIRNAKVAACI
# T2: heparanase protein (form not stated) (human) (UniProt Q9Y251)
# T2 sequence: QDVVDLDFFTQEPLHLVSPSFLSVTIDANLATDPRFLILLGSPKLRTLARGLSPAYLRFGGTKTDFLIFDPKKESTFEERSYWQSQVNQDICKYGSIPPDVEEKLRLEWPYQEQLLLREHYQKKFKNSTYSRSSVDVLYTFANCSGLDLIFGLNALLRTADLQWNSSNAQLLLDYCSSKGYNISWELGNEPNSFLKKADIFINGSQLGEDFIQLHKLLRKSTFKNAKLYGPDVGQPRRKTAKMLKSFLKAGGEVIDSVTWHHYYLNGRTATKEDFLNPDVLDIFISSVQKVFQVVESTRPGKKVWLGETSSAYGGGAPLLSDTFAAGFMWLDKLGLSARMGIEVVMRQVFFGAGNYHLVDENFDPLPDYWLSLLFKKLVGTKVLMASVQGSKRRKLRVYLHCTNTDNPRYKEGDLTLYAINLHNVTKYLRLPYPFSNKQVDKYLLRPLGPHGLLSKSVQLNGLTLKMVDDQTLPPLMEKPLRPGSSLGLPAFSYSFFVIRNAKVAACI
# B1: A54 anti-heparanase monoclonal antibody (purified from hybridoma A54) (antibody, V domains shown)
# VH: QVQLQQSGAELAKPGASVRMSCKASGYTFTNYWMHWVKQRPGQGLEWIGYINPTTGYTEYNQKFKDKATLTADKSSSTAYMQLSSLTSEDSAVYYCARGGAGYDYDEDYAMDYWGQGTSVTVSS
# VL: DIVLTQSPASLAVSLGQRATISCRASESVEYFGTSYMNWYQQKPGQPPKLLIYLASILESGIPARFSGSGSGTDFTLNIHPVEEEDAATYYCQQSNEDPYTFGGGTKLEIK
# notes: VH of A54; the Fab heavy chain is in the deposited structure PDB 9S8W; mouse IgG1 heavy chain constant region (subclass found with an isotyping kit); CH1 is also in PDB 9S8W; VL of A54; the Fab light chain is in the deposited structure PDB 9S8W; mouse kappa light chain constant region (IgG1-Kappa is stated for the recombinant version); also in PDB 9S8W; Mouse IgG1; whole IgG; Only the Fab part is …
# B2: recombinant A54 mAb (antibody, V domains shown)
# VH: B1 VH
# VL: B1 VL
# What was measured:
# latent 65 kDa heparanase [1] = target: T3, latent 65 kDa heparanase (Homo sapiens, UniProt Q9Y251); experiment: ELISA; 96-well microtiter plate coated with latent 65 kDa heparanase (Hpa65); purified mAb A54 or control mouse IgG added at the indicated concentrations; conditions: both partners purified
# T3 construct: heparanase, human, unprocessed 65 kDa latent proenzyme on one chain ('full-length latent heparanase'); also called Hpa65; pro-heparanase; source: recombinant
# latent 65 kDa heparanase [2] = target: T3, latent 65 kDa heparanase; experiment: SPR; Biacore analysis; orientation and conditions not told; conditions: both partners purified
# [3] = target: T1, mature heparanase (active heterodimer of 8 kDa and 50 kDa subunits) (human)
# [4] = target: T2, heparanase protein (form not stated) (human); experiment: not stated; binding affinity of the humanized vs. the mouse A54 antibody for the heparanase protein; service by GenScript
Binder,IC50 (latent 65 kDa heparanase [1]),Kd (latent 65 kDa heparanase [2]),inhibition of heparanase enzymatic activity by hybridoma A54 supernatant (release of sulfate-labeled HS degradation fragments from 35S-labeled ECM) [3],Kd [4]
B1,0.2 nM,3.18 nM,80%,–
B2,–,–,–,1 nM
